Results reported in patent publication US20150087812A1 (Janssen / Centocor, published 2015).
Positions count from the first letter of the chain named. One block for each binder: values may come before it.

Tests used:
[1] = biological target: recombinant mouse ATX beta isoform (R&D Systems, Cat No. 6187-EN-010) (mouse, UniProt Q9R1E6 36-862); test: cell-based or functional assay
[2] = biological target: T1, recombinant human ATX beta isoform with N-terminal purification tag (human, UniProt Q13822 49-863); test: SPR Biacore 3000, His-ATX beta captured on anti-Penta-His, mAb as analyte, bivalent analyte model
Procedure: (§1) Affinity measurements using surface plasmon resonance (SPR) were performed using a Biacore 3000 optical biosensor (Biacore) for ATXB3, ATXB6, ATXB8, ATXB9, ATXB13, and ATXB14. A biosensor surface was prepared by coupling anti-Penta-His antibody (Qiagen, Cat No. 34660) to the carboxymethylated dextran surface of a CM-5 chip (Biacore, Cat No. BR-1000-14) using the manufacturer instructions for amine-coupling chemistry. Approximately 15,000 RU (response units) of anti-Penta-His antibody were immobilized in each of four flow cells. The kinetic experiments were performed at 25° C. in running buffer (PBS+0.01% P20+100 ug/ml BSA). Serial dilutions of anti-ATX mAbs (ATXB3, B6, B8, B9, B13, B14) from 900 nM to 0.412 nM were prepared in running buffer. About 80 RU of human ATX beta-His tagged proteins were captured on flow cell 2 of the sensor chip. Flow cell 1 was used as reference surface. Capture of ATX was followed by five minutes injection (association phase) of anti-ATX mAbs at 50 uL/min, followed by 15 minutes of buffer flow (dissociation phase). The chip surface was regenerated by 15 seconds injection of 100 mM H₃PO₄ (Sigma, Cat No. 7961) at 50 uL/min. The collected data were processed using BIAevaluation software, version 3.2 (Biacore). First, double reference subtraction of the data was performed by subtracting the curves generated by buffer injection from the reference-subtracted curves for analyte injections. Then kinetic analysis of the data was performed using the Bivalent Analyte binding model with global fitting. Kd1 (Kₒₙ) was calculated as intrinsic KD with minimum avidity. The result for each mAb was reported in the format of Ka1 (On-rate, Kₒₙ), Kd1 (Off-rate, Koff) and KD1 (Equilibrium dissociation constant). Affinity measurements for ATXB18 were performed on a Proteon XPR36 system (Bio-Rad), using a protocol similar to the one used on the Biacore platform.
The five mAbs with the lowest IC50 values in the inhibition assays as well as ATXB3, a non-neutralizing antibody, were tested for their affinity to the human ATX-beta isoform, as measured by surface plasmon resonance. Due to nonspecific binding of the ATX antigen to the chip surface, these experiments had to be conducted in the reverse format, with ATX immobilized on the chip surface (ligand) and our antibodies in solution (analyte).

[3] = biological target: T1, recombinant human ATX beta isoform with …; test: cell-based or functional assay
[4] = biological target: T1, recombinant human ATX beta isoform with …; test: SPR ProteOn XPR36, protocol similar to the Biacore one, bivalent analyte model
Procedure: as §1, with “Affinity measurements for ATXB18 were performed on a Proteon XPR36 system (Bio-Rad), using a protocol similar to the one used on the Biacore platform.” left out
The five mAbs with the lowest IC50 values in the inhibition assays as well as ATXB3, a non-neutralizing antibody, were tested for their affinity to the human ATX-beta isoform, as measured by surface plasmon resonance. […]

- IC50, inhibition of LPC hydrolysis by mouse ATX, coupled choline oxidation (Amplex Red) assay [1]: 9.3 nM
- Kd [2]: 47.8 nM
- koff [2]: 0.000322 s⁻¹
- kon [2]: 3370 M⁻¹ s⁻¹
- IC50, inhibition of LPC hydrolysis by human ATX beta (1.5 nM), coupled choline oxidation (Amplex Red) assay [3]: 14.5 nM
B1: mAb ATXB9 (antibody, V domains shown)
VH: QVQLVQSGAEVKKPGSSVKVSCKASGGTFSSYAISWVRQAPGQGLEWMGGISPYFGNANYAQKFQGRVTITADESTSTAYMELSSLRSEDTAVYYCARYGDFGGNVFTEFDYWGQGTLVTVSS
VL: EIVLTQSPGTLSLSPGERATLSCRASQSVNNSDLAWYQQKPGQAPRLLIYTASSRATGIPDRFSGSGSGTDFTLTISRLEPEDFAVYYCQQATTVPLTFGQGTKVEIK
notes: Human IgG1/kappa from Fab F89

- IC50, inhibition of LPC hydrolysis by mouse ATX, coupled choline oxidation (Amplex Red) assay [1]: 0.8 nM
- Kd [2]: 1.77 nM
- koff [2]: 0.000883 s⁻¹
- kon [2]: 249000 M⁻¹ s⁻¹
- IC50, inhibition of LPC hydrolysis by human ATX beta (1.5 nM), coupled choline oxidation (Amplex Red) assay [3]: 0.7 nM
B2: mAb ATXB8 (antibody, V domains shown)
VH: QVQLVQSGAEVKKPGSSVKVSCKASGGTFSSYAISWVRQAPGQGLEWMGGIIPIFGTANYAQKFQGRVTITADESTSTAYMELSSLRSEDTAVYYCARDSSAYGDFDYWGQGTLVTVSS
VL: DIQMTQSPSSLSASVGDRVTITCRASQSIDGWLNWYQQKPGKAPKLLIYAASSLQSGVPSRFSGSGSGTDFTLTISSLQPEDFATYYCQQSYSTPLTFGQGTKVEIK
notes: Human IgG1/kappa from Fab F96

- Kd [4]: 0.673 nM
- koff [4]: 0.000614 s⁻¹
- kon [4]: 949000 M⁻¹ s⁻¹
B3: mAb ATXB18 (antibody, V domains shown)
VH: B2 VH with S100A, A102T, F106L
VL: B2 VL
notes: Human IgG1/kappa from Fab F97

- IC50, inhibition of LPC hydrolysis by mouse ATX, coupled choline oxidation (Amplex Red) assay [1]: 0.5 nM
- Kd [2]: 0.6 nM
- koff [2]: 0.000329 s⁻¹
- kon [2]: 274000 M⁻¹ s⁻¹
- IC50, inhibition of LPC hydrolysis by human ATX beta (1.5 nM), coupled choline oxidation (Amplex Red) assay [3]: 1 nM
B4: mAb ATXB13 (antibody, V domains shown)
VH: B2 VH with S100F, A102V
VL: B2 VL with D30A, G31K
notes: Human IgG1/kappa from Fab F143

- IC50, inhibition of LPC hydrolysis by mouse ATX, coupled choline oxidation (Amplex Red) assay [1]: 1.5 nM
- Kd [2]: 0.369 nM
- koff [2]: 0.000583 s⁻¹
- kon [2]: 789000 M⁻¹ s⁻¹
- IC50, inhibition of LPC hydrolysis by human ATX beta (1.5 nM), coupled choline oxidation (Amplex Red) assay [3]: 0.8 nM
B5: mAb ATXB14 (antibody, V domains shown)
VH: B2 VH with T57N, A58T, S100I, A102G, F106L
VL: B2 VL
notes: Human IgG1/kappa from Fab F104
